B8: full-length intracellular domain of the p55-TNF-R (p55IC) (receptor)
chain: RYQRWKSKLYSIVCGKSTPEKEGELEGTTTKPLAPNPSFSPTPGFTPTLGFSPVPSSTFTSSSTYTPGDCPNFAAPRREVAPPYQGADPILATALASDPIPNPLQKWEDSAHKPQSLDTDDPATLYAVVENVPPLRWKEFVRRLGLSDHEIDRLELQNGRCLREAQYSMLATWRRRTPRREATLELLGRVLRDMDLLGCLEDIEEALCGPAALPPAPSLLR
notes: the GAL4 part is not written as a piece; also called pGBT9-IC55; IC55

What was measured:
[1] = target: the molecule itself; experiment: yeast two-hybrid beta-galactosidase test (FIG. 14)
[2] = target: T1, pGBT9 (vector alone) (UniProt P04386 1-147); experiment: yeast two-hybrid (SFY526), liquid beta-galactosidase assay
T1 construct: Negative control bait; also called empty bait vector; empty Gal4 (pGBT9) vector

[3] = target: B8; experiment: as above
[4] = target: T2, lamin (irrelevant protein); experiment: as above
T2 construct: Two-hybrid control bait; also called pACT-Lamin

[5] = target: B8; experiment: yeast two-hybrid (SFY526), various baits
[6] = target: T3, 55.11 protein, partial (residues 309-900, as originally isolated), GAL4 activation-domain hybrid (human, UniProt Q13200 318-899); experiment: yeast two-hybrid beta-galactosidase filter assay (SFY526), FIG. 13
[7] = target: T3, 55.11 protein, partial (residues …); experiment: yeast two-hybrid, colony colour (lacZ/X-gal)
[8] = target: T4, 55.11 construct 309-680 (C-terminal truncation) (human, UniProt Q13200 318-689); experiment: yeast two-hybrid beta-galactosidase filter assay (SFY526), FIG. 13
T4 construct: GAL4 part not written

[9] = target: T5, 55.11 construct 457-900 (N-terminal truncation) (human, UniProt Q13200 466-899); experiment: as above
T5 construct: GAL4 part not written

[10] = target: T6, 55.11 protein, partial (residues 309-900), VP16 activation-domain hybrid (human, UniProt Q13200 318-899); experiment: as above
T6 construct: the VP16 part is not written; also called VP16AD

[11] = target: T1, pGBT9 (vector alone); experiment: yeast two-hybrid, colony colour (lacZ/X-gal)

T3 sequence (Q13200 other isoform, or with tags, fused parts or gaps): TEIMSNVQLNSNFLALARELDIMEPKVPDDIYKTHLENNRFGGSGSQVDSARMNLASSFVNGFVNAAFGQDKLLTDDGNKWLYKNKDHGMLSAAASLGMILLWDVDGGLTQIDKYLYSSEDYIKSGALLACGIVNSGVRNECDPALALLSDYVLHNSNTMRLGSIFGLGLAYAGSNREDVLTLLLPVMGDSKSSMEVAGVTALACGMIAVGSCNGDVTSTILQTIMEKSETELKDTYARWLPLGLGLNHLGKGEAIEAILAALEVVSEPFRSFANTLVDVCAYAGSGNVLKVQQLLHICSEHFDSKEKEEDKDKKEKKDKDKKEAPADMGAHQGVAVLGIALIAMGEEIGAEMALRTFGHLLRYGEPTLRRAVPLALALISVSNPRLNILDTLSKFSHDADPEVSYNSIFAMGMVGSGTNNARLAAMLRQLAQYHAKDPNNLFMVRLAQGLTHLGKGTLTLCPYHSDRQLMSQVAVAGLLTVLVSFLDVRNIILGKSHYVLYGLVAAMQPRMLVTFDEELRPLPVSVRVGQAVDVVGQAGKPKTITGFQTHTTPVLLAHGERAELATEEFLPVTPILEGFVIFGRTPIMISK
T1 sequence (P04386 1-147 limits assumed): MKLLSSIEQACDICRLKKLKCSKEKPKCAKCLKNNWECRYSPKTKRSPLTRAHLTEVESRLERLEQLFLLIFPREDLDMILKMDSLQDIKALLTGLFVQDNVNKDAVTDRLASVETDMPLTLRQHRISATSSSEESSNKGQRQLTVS
T5 sequence (Q13200 other isoform, or with tags, fused parts or gaps): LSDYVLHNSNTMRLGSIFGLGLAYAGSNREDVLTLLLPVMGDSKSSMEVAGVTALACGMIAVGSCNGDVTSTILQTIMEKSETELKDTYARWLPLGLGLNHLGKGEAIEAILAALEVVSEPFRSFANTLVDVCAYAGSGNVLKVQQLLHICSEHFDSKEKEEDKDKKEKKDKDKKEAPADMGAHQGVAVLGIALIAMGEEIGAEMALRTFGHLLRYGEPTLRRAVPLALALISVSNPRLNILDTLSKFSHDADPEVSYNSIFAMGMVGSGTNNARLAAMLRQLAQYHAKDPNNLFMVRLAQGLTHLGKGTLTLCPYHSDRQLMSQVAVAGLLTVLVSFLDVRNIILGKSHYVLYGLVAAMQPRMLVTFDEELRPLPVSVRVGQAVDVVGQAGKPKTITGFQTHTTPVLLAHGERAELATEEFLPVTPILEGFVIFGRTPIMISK
T4 sequence (Q13200 318-689): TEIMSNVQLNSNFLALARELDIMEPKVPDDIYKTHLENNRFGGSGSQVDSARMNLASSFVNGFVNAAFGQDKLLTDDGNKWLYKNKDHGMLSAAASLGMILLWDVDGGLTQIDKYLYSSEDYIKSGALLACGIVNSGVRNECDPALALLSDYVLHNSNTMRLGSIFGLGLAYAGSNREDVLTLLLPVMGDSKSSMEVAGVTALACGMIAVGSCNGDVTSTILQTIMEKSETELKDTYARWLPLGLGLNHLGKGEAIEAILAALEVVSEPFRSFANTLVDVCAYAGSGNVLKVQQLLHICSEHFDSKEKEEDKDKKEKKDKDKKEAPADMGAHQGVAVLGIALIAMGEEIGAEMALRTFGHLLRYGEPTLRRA

B1: mouse Fas/APO1 intracellular domain (FAS-IC, residues 166-306) (receptor, UniProt P25446 187-327, looked up)
chain: RKYRKRKCWKRRQDDPESRTSSRETIPMNASNLSLSKYIPRIAEDMTIQEAKKFARENNIKEGKIDEIMHDSIQDTAEQKVQLLLCWYQSHGKSDAYQDLIKGLKKAECRRTLDKFQDMVQKDLGKSTPDTGNENEGQCLE
notes: range 166-306; GAL4 hybrid constructs; also called murine FAS-IC; mouse FAS-IC
binding result [1]: binds

B2: 55.3 (protein fragment 55.3 of the p55IC, residues 277-426) (receptor)
chain: NFAAPRREVAPPYQGADPILATALASDPIPNPLQKWEDSAHKPQSLDTDDPATLYAVVENVPPLRWKEFVRRLGLSDHEIDRLELQNGRCLREAQYSMLATWRRRTPRREATLELLGRVLRDMDLLGCLEDIEEALCGPAALPPAPSLLR
Lac Z Activity in Liquid Culture Assay [2]: 0
Lac Z Activity in Liquid Culture Assay [3]: 0.04
Lac Z Activity in Liquid Culture Assay [4]: 0

B3: protein encoded by the 230 clone (other)
chain: GPIREAGLAGWLALGCSGPPAEAAGGAGEPWPQHSGKGQLAGRNAWVKKRKAPRENSPGVRSCRASGRASRPHGDPFLLTLPRARHPVTLNVTIQVSLKQRNVRFNTPFRRGEN
notes: 114 amino acid residues; HeLa cDNA clone in pGAD-GH; GAL4 part not written
binding result [5]: no binding

B4: E3 (p75IC-binding protein encoded by clone E3) (other)
chain: TFKIRMEPDETVKVLKEKIEAEKGRDAFPVAGQKLIYAGKILSDDVPIRDYRIDEKNFVVVMVTKTKAGQGTSAPPEASPTAAPESSTSFPPAPTSGMSHPPPAAREDKSPSEESTPTPEQEPCLZ
notes: GAL4 part not written; for coprecipitation expressed in HeLa cells from pUHD10-3
binding result [5]: no binding

B5: truncated p55-IC from which the death domain had been deleted (construct 206-328) (receptor)
chain: RYQRWKSKLYSIVCGKSTPEKEGELEGTTTKPLAPNPSFSPTPGFTPTLGFSPVPSSTFTSSSTYTPGDCPNFAAPRREVAPPYQGADPILATALASDPIPNPLQKWEDSAHKPQSLDTDDPA
notes: GAL4 part not written
binding result [6]: binds

B6: p55-IC construct from which both the death domain and a membrane proximal part were deleted (construct 243-328) (receptor)
chain: SFSPTPGFTPTLGFSPVPSSTFTSSSTYTPGDCPNFAAPRREVAPPYQGADPILATALASDPIPNPLQKWEDSAHKPQSLDTDDPA
notes: GAL4 part not written
binding result [6]: binds

B7: C terminally truncated p55-IC (construct 206-308) (receptor)
chain: RYQRWKSKLYSIVCGKSTPEKEGELEGTTTKPLAPNPSFSPTPGFTPTLGFSPVPSSTFTSSSTYTPGDCPNFAAPRREVAPPYQGADPILATALASDPIPNP
notes: GAL4 part not written
binding result [6]: binds

B8
binding result [7]: binds
binding result [8]: no binding (tested: no development of color within 24 h)
binding result [9]: no binding (tested: no development of color within 24 h)
binding result [10]: binds

B9: 55.1 (protein fragment 55.1 of the p55IC, residues 328-426, the death domain) (receptor)
chain: ATLYAVVENVPPLRWKEFVRRLGLSDHEIDRLELQNGRCLREAQYSMLATWRRRTPRREATLELLGRVLRDMDLLGCLEDIEEALCGPAALPPAPSLLR
notes: also called death domain of human p55-R
binding result [11]: no binding
Lac Z Activity in Liquid Culture Assay [2]: 0
Lac Z Activity in Liquid Culture Assay [3]: 0.65
Lac Z Activity in Liquid Culture Assay [4]: 0

B10: E19 (p75IC-binding protein encoded by clone E19) (other)
chain: EAAGRERERTLEYAEAHAFKSPSKENKKKDKDMLEDKFKSNNLEREQEQLDRIVKESGGKLTRRLVNSQCEFERRKPDGTTTLGLLHPVDPIVGEPGYCPVRLGMTTGRLQSGVNTLQGFKEDKRNKVTPVLYLELWAPTVLYAPHYDSTFANYQQGLI
notes: HeLa cDNA clone in pGAD-GH; GAL4 part not written
binding result [5]: no binding

From US20070232520A1 (YEDA RESEARCH AND DEVELOPMENT, published 2007)
